Columns and labels:
[1] = molecular target: HLA-B*15:01; assay: IEDB peptide-MHC binding, purified MHC/competitive/fluorescence; ≥ and ≤ were set here for values at or beyond the usual limits of such assays
[2] = molecular target: HLA-A*02:01; assay: as above
[3] = molecular target: HLA-A*24:02; assay: as above
[4] = molecular target: HLA-A*01:01; assay: IEDB peptide-MHC binding, purified MHC/direct/fluorescence; filed as Kd, often an IC50 or EC50 that approximates it; ≥ and ≤ were set here for values at or beyond the usual limits of such assays
[5] = molecular target: HLA-A*31:01; assay: as above
[6] = molecular target: HLA-B*58:01; assay: as above
[7] = molecular target: HLA-B*15:01; assay: as above
[8] = molecular target: HLA-B*07:02; assay: as above
[9] = molecular target: HLA-A*11:01; assay: as above
[10] = molecular target: HLA-B*08:01; assay: as above
[11] = molecular target: HLA-B*46:01; assay: as above
[12] = molecular target: HLA-A*03:01; assay: as above
[13] = molecular target: HLA-B*44:02; assay: as above
[14] = molecular target: HLA-B*57:01; assay: as above
[15] = molecular target: HLA-A*02:01; assay: as above
[16] = molecular target: HLA-A*29:02; assay: as above
[17] = molecular target: HLA-B*48:01; assay: as above
[18] = molecular target: HLA-B*27:05; assay: as above
[19] = molecular target: HLA-B*40:01; assay: as above; details: source organism: Yersinia pestis
[20] = molecular target: HLA-B*51:01; assay: as above; details: source organism: Yersinia enterocolitica subsp. enterocolitica 8081
[21] = molecular target: HLA-A*69:01; assay: as above
[22] = molecular target: HLA-A*02:19; assay: as above
[23] = molecular target: HLA-A*26:01; assay: as above; details: source organism: Yersinia pestis
[24] = molecular target: HLA-A*02:12; assay: as above
[25] = molecular target: HLA-A*29:02; assay: IEDB peptide-MHC binding, purified MHC/competitive/fluorescence; filed as Kd, often an IC50 or EC50 that approximates it; ≥ and ≤ were set here for values at or beyond the usual limits of such assays
[26] = molecular target: HLA-B*58:01; assay: IEDB peptide-MHC binding, purified MHC/competitive/radioactivity; filed as Kd, often an IC50 or EC50 that approximates it; ≥ and ≤ were set here for values at or beyond the usual limits of such assays
[27] = molecular target: HLA-B*53:01; assay: as above; details: source organism: Dengue virus 3 Martinique/1243/1999
[28] = molecular target: HLA-B*57:01; assay: as above
[29] = molecular target: HLA-A*32:01; assay: as above
[30] = molecular target: HLA-B*18:01; assay: IEDB peptide-MHC binding, purified MHC/direct/fluorescence; filed as Kd, often an IC50 or EC50 that approximates it; ≥ and ≤ were set here for values at or beyond the usual limits of such assays; details: source organism: Mammarenavirus juninense
[31] = molecular target: HLA-A*24:03; assay: as above; details: source organism: Zaire ebolavirus
[32] = molecular target: HLA-A*23:01; assay: as above; details: source organism: Zaire ebolavirus
[33] = molecular target: HLA-B*15:17; assay: IEDB peptide-MHC binding, purified MHC/competitive/fluorescence; filed as Kd, often an IC50 or EC50 that approximates it; ≥ and ≤ were set here for values at or beyond the usual limits of such assays; details: source organism: Zaire ebolavirus
[34] = molecular target: HLA-B*39:01; assay: as above; details: source organism: Zaire ebolavirus
[35] = molecular target: HLA-B*51:01; assay: as above; details: source organism: Zaire ebolavirus
[36] = molecular target: HLA-A*31:01; assay: as above; details: source organism: Zaire ebolavirus
[37] = molecular target: HLA-A*69:01; assay: as above; details: source organism: Zaire ebolavirus
[38] = molecular target: HLA-B*27:03; assay: as above; details: source organism: Zaire ebolavirus
[39] = molecular target: HLA-B*15:01; assay: as above; details: source organism: Zaire ebolavirus
[40] = molecular target: HLA-B*18:01; assay: as above; details: source organism: Zaire ebolavirus
[41] = molecular target: HLA-B*46:01; assay: as above; details: source organism: Zaire ebolavirus
[42] = molecular target: HLA-A*26:01; assay: as above; details: source organism: Zaire ebolavirus
[43] = molecular target: HLA-B*57:01; assay: as above; details: source organism: Zaire ebolavirus
[44] = molecular target: HLA-A*02:01; assay: as above; details: source organism: Zaire ebolavirus
[45] = source organism: Zaire ebolavirus
[46] = source organism: Vaccinia virus Copenhagen
[47] = source organism: Mammarenavirus lassaense
[48] = source organism: Yersinia pestis Nepal516
[49] = source organism: Yersinia pestis
[50] = source organism: Yersinia enterocolitica subsp. enterocolitica 8081
[51] = source organism: Dengue virus 3 Martinique/1243/1999
[52] = source organism: Sudan ebolavirus
[53] = source organism: Dengue virus 3 Singapore/8120/1995
[54] = source organism: Mammarenavirus juninense

Q: What does the source list for AMNEENRFV?
A: IC50 [1, 45]: ≥ 220 µM; IC50 [2, 45]: 6.8 µM

Q: Which results are given for ASPMLYQLL?
A: IC50 [3, 46]: 0.233 µM; IC50 [1, 46]: 37.2 µM; IC50 [2, 46]: 39.6 µM

Q: Which Kd [4, 47] does the source give for DIKLIDIAL here?
A: ≥ 20 µM

Q: What about the Kd [5, 47] of the same sequence?
A: ≥ 20 µM

Q: What about the Kd [6, 47] of the same sequence?
A: ≥ 20 µM

Q: What about the Kd [7, 47] of the same sequence?
A: ≥ 20 µM

Q: What about the Kd [8, 47] of the same sequence?
A: ≥ 20 µM

Q: What about the Kd [9, 47] of the same sequence?
A: ≥ 20 µM

Q: What about the Kd [10, 47] of the same sequence?
A: 0.894 µM

Q: What about the Kd [11, 47] of the same sequence?
A: ≥ 20 µM

Q: What about the Kd [12, 47] of the same sequence?
A: ≥ 20 µM

Q: And the Kd [13, 47]?
A: ≥ 20 µM

Q: What about the Kd [14, 47] of the same sequence?
A: ≥ 20 µM

Q: What about the Kd [15, 47] of the same sequence?
A: ≥ 20 µM

Q: And the Kd [16, 47]?
A: ≥ 20 µM

Q: And the Kd [17, 47]?
A: ≥ 20 µM

Q: What about the Kd [18, 47] of the same sequence?
A: ≥ 20 µM

Q: With ETIFTVLAL as the sequence, how does the Kd [19] read?
A: 2.41 µM

Q: What about the Kd [20] of the same sequence?
A: ≥ 20 µM

Q: And the Kd [4, 48]?
A: ≥ 20 µM

Q: What about the Kd [5, 48] of the same sequence?
A: ≥ 20 µM

Q: And the Kd [21, 49]?
A: 0.0035 µM

Q: And the Kd [6, 48]?
A: ≥ 20 µM

Q: And the Kd [7, 48]?
A: ≥ 20 µM

Q: And the Kd [8, 49]?
A: 4.5 µM

Q: And the Kd [9, 48]?
A: ≥ 20 µM

Q: And the Kd [10, 48]?
A: ≥ 20 µM

Q: And the Kd [22, 50]?
A: ≥ 20 µM

Q: And the Kd [12, 48]?
A: ≥ 20 µM

Q: And the Kd [23]?
A: 0.00767 µM

Q: And the Kd [13, 48]?
A: ≥ 20 µM

Q: What about the Kd [14, 50] of the same sequence?
A: ≥ 20 µM

Q: And the Kd [15, 48]?
A: ≥ 20 µM

Q: What about the Kd [16, 50] of the same sequence?
A: 0.182 µM

Q: What about the Kd [18, 48] of the same sequence?
A: ≥ 20 µM

Q: What about the Kd [24, 50] of the same sequence?
A: ≥ 20 µM

Q: FESTITGEY was tested. Which Kd ([25]; source organism: Vibrio cholerae 2740-80) did it give?
A: 0.0075 µM

Q: With FLPNPAFIH as the sequence, how does the IC50 ([3]; source organism: Variola virus) read?
A: 0.497 µM

Q: What about the IC50 ([1]; source organism: Variola virus) of the same sequence?
A: 25.5 µM

Q: What about the IC50 ([2]; source organism: Variola virus) of the same sequence?
A: 2.11 µM

Q: GATTETPTW was tested. Which Kd [26, 51] did it give?
A: 0.00208 µM

Q: And the Kd [27]?
A: 0.0692 µM

Q: What about the Kd [28, 51] of the same sequence?
A: 0.0804 µM

Q: Which results are given for HMQISTIGI?
A: IC50 [3, 52]: 15.6 µM; IC50 [1, 52]: 9.61 µM; IC50 [2, 52]: 4.09 µM

Q: How did the Kd [26, 53] turn out when KVMEITAEW was run?
A: 0.00109 µM

Q: And the Kd [29, 53]?
A: 0.0143 µM

Q: What about the Kd [28, 53] of the same sequence?
A: 0.0181 µM

Q: How did the Kd ([25]; source organism: Bacillus thuringiensis str. Al Hakam) turn out when LLYYWVHLF was run?
A: 0.022 µM

Q: Which IC50 [1, 52] does the source give for LQLFLRATT here?
A: ≥ 91.4 µM

Q: And the IC50 [2, 52]?
A: ≥ 125 µM

Q: For PATLLVWHTW, which Kd [26, 51] is on record?
A: 0.278 µM

Q: What about the Kd [29, 51] of the same sequence?
A: 3.67 µM

Q: What about the Kd [28, 51] of the same sequence?
A: 1.39 µM

Q: Which results are given for QLAKRSEIL?
A: Kd [4, 54]: ≥ 20 µM; Kd [5, 54]: ≥ 20 µM; Kd [21, 54]: ≥ 20 µM; Kd [6, 54]: ≥ 20 µM; Kd [30]: ≥ 20 µM; Kd [9, 54]: ≥ 20 µM; Kd [10, 54]: 1.3 µM; Kd [11, 54]: ≥ 20 µM; Kd [12, 54]: ≥ 20 µM; Kd [13, 54]: ≥ 20 µM; Kd [14, 54]: ≥ 20 µM; Kd [16, 54]: ≥ 20 µM; Kd [17, 54]: ≥ 20 µM; Kd [18, 54]: ≥ 20 µM

Q: What does the source list for SLTESDMDY?
A: IC50 [1, 45]: 68.3 µM; IC50 [2, 45]: ≥ 140 µM

Q: With TSACGIFLK as the sequence, how does the Kd [31] read?
A: ≥ 20 µM

Q: What about the Kd [22, 45] of the same sequence?
A: ≥ 20 µM

Q: What about the Kd ([12]; source organism: Sudan ebolavirus - Maleo (1979)) of the same sequence?
A: 1.1 µM

Q: What about the Kd [32] of the same sequence?
A: ≥ 20 µM

Q: What about the Kd [16, 45] of the same sequence?
A: ≥ 20 µM

Q: What about the Kd [24, 45] of the same sequence?
A: ≥ 20 µM

Q: And the Kd [33]?
A: ≥ 20 µM

Q: And the Kd [34]?
A: ≥ 20 µM

Q: What about the Kd [35] of the same sequence?
A: ≥ 20 µM

Q: And the Kd [36]?
A: ≥ 20 µM

Q: And the Kd [37]?
A: ≥ 20 µM

Q: What about the Kd [38] of the same sequence?
A: ≥ 20 µM

Q: And the Kd [39]?
A: ≥ 20 µM

Q: And the Kd [40]?
A: ≥ 20 µM

Q: And the Kd [41]?
A: ≥ 20 µM

Q: What about the Kd [42] of the same sequence?
A: ≥ 20 µM

Q: And the Kd [43]?
A: ≥ 20 µM

Q: What about the Kd [44] of the same sequence?
A: ≥ 20 µM

Q: With YFGPAAEGI as the sequence, how does the IC50 [3, 45] read?
A: 0.253 µM

Q: And the IC50 [1, 45]?
A: ≥ 197 µM

Q: What about the IC50 [2, 45] of the same sequence?
A: 60 µM
